Experiments:
[1] = biological target: WipA411 (WipA 33-411) (Legionella pneumophila) (UniProt Q5ZS02); assay: SEC-MALS
[2] = biological target: WipA (IcmW-interacting protein A; lpg2718), full-length protein (Legionella pneumophila) (UniProt Q5ZS02); assay: SEC-MALS

Substance	stoichiometry N [1]	stoichiometry N [2]
WipA411 (WipA 33-411) (from UniProt Q5ZS02 33-411) (domain or fragment)	2	–
WipA (IcmW-interacting protein A; lpg2718), full-length protein (from UniProt Q5ZS02 1-520) (enzyme)	–	2

— article PMC5454105
